T1: biotinylated SnoopLigase (biotin on the AP peptide (BirA biotinylation))
T1 construct: Captured or immobilised on streptavidin-agarose in the elution experiments; also called Biotin-SnoopLigase; biotin-SnoopLigase; not shown: N-terminal His6-tag and flexible GS-rich linker; AP, substrate peptide for BirA biotinylation
T1 chain: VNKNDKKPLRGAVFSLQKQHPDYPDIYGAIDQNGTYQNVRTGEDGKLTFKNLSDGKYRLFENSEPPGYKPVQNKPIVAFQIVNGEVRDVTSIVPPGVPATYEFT

B1: SnoopTagJr:DogTag competitor peptide (peptide)
peptide 1: KLGSIEFIKVNK
peptide 2: DIPATYEFTDGKHYITNEPIPPK
modifications: not fully specified; Asn 17 joined by an isopeptide bond to Lys 9 of SnoopTagJr; Lys 9 joined by an isopeptide bond to Asn 17 of DogTag
notes: Made from SUMO-DogTag and synthetic SnoopTagJr peptide with immobilised HaloTag7-SnoopLigase, then cut from SUMO by Ulp1; also called SnoopTagJr:DogTag peptide conjugate; DogTag:SnoopTagJr peptide

Tests used:
AffiHER2-DogTag = test: cell-based or functional assay
SUMO-DogTag = test: cell-based or functional assay
MBP-DogTag = test: cell-based or functional assay
DogTag-mClover3 = test: cell-based or functional assay
[1] = target: DogTag-HaloTag7SS fusion protein; test: cell-based or functional assay
IMX-DogTag = test: cell-based or functional assay
biotinylated SnoopLigase = target: T1, biotinylated SnoopLigase; test: competition elution at 37 °C from biotin-SnoopLigase on streptavidin-agarose; SDS-PAGE

Molecule	Percentage of DogTag partner reacted (AffiHER2-DogTag) [%]	Percentage of SnoopTagJr partner reacted (AffiHER2-DogTag) [%]	Percentage of DogTag partner reacted (SUMO-DogTag) [%]	Percentage of SnoopTagJr partner reacted (SUMO-DogTag) [%]	Percentage of DogTag partner reacted (MBP-DogTag) [%]	Percentage of DogTag partner reacted (DogTag-mClover3) [%]	Percentage of SnoopTagJr partner reacted (DogTag-mClover3) [%]	reaction yield (SUMO-DogTag) [%]	Percentage of SnoopTagJr partner reacted (MBP-DogTag) [%]	reaction yield [1] [%]	reaction yield (IMX-DogTag) [%]	binding result (biotinylated SnoopLigase)
HaloTag7SS-SnoopTagJr	100	99.3	99.7	99	97	96.1	98	–	–	–	–	–
SnoopTagJr-AffiHER2	99.9	100	99.9	99.9	98.4	94	99.8	99	100	90	–	–
SnoopTagJr-mEGFP	99.9	99.9	99.1	100	87.8	82.3	89.4	–	99.7	–	–	–
SnoopTagJr-MBP	–	–	–	–	–	–	–	–	–	–	96	–
MBP-SnoopTagJr	100	93.3	99	99.1	95	85.4	79.5	–	–	–	–	–
B1	–	–	–	–	–	–	–	–	–	–	–	binds

— patent publication US20200115422A1 (OXFORD UNIVERSITY INNOVATION, published 2020)
